Experimental data from article PMC3605307 (PLoS Pathogens, 2013).

Tests used:
Experiment in all cases: SPR
[1] = target: T1, TRAIL (TNF-related apoptosis inducing ligand) ectodomain (UniProt P50591 39-281); details: one partner purified
T1 construct: also called TNFSF10; Apo2L

[2] = target: T2, Human TRAIL-R2 ectodomain (residues 58–184), released from the Fc fusion (human, UniProt O14763 58-184, selenomethionine (only in the labelled complex of the derivative crystals)); details: both partners purified
T2 construct: also called DR5; TRAIL-R2 receptor; not shown: Fc (human IgG1), C-terminal, cleaved

[3] = target: T3, TRAIL (TNF-related apoptosis inducing ligand) ectodomain (UniProt P50591 39-281); details: one partner purified; remark: listed apart in the source
T3 construct: also called TNFSF10; Apo2L

Binder	Kd [1] [nM]	koff [1] [s⁻¹]	kon [1] [M⁻¹ s⁻¹]	also measured
human TRAIL-R2-Fc D148A (Fc fusion, source: Sf9 insect cells, culture supernatant; not shown: Fc (human IgG1), C-terminal, kept) QQDLAPQQRAAPQQKRSSPSEGLCPPGHHISEDGRDCISCKYGQDYSTHWNDLLFCLRCTRCDSGEVELSPCTTTRNTVCQCEEGTFREEASPEMCRKCRTGCPRGMVKVGDCTPWSDIECVHKESG	4.48	3.58e-05	8000	
human TRAIL-R2-Fc M152A (Fc fusion, source: Sf9 insect cells, culture supernatant; not shown: Fc (human IgG1), C-terminal, kept) QQDLAPQQRAAPQQKRSSPSEGLCPPGHHISEDGRDCISCKYGQDYSTHWNDLLFCLRCTRCDSGEVELSPCTTTRNTVCQCEEGTFREEDSPEACRKCRTGCPRGMVKVGDCTPWSDIECVHKESG	202	0.000678	3350	
human TRAIL-R2-Fc K155A (Fc fusion, source: Sf9 insect cells, culture supernatant; not shown: Fc (human IgG1), C-terminal, kept) QQDLAPQQRAAPQQKRSSPSEGLCPPGHHISEDGRDCISCKYGQDYSTHWNDLLFCLRCTRCDSGEVELSPCTTTRNTVCQCEEGTFREEDSPEMCRACRTGCPRGMVKVGDCTPWSDIECVHKESG	39.7	0.000138	3480	
human TRAIL-R2-Fc P150A (Fc fusion, source: Sf9 insect cells, culture supernatant; not shown: Fc (human IgG1), C-terminal, kept) QQDLAPQQRAAPQQKRSSPSEGLCPPGHHISEDGRDCISCKYGQDYSTHWNDLLFCLRCTRCDSGEVELSPCTTTRNTVCQCEEGTFREEDSAEMCRKCRTGCPRGMVKVGDCTPWSDIECVHKESG	4.29	9.02e-06	2100	
UL141-Fc fusion protein (Fc fusion) DIAEKMWAENYETTSPAPVLVAEGEQVTIPCTVMTHSWPMVSIRARFCRSHDGSDELILDAVKGHRLMNGLQYRLPYATWNFSQLHLGQIFSLTFNVSTDTAGMYECVLRNYSHGLIMQRFVILTQLETLSRPDEPCCTPALGRYSLGDQIWSPTPWRLRNHDCGMYRGFQRNYFYIGRADAEDCWKPACPDEEPDRCWTVIQRYRLPGDCYRSQPHPPKFLPVTPAPPADIDTGMS				Kd [2]: 21.4 nM; koff [2]: 0.00564 s⁻¹; kon [2]: 264000 M⁻¹ s⁻¹
Human TRAIL-R2-Fc M152A (Fc fusion, also called TRAIL-R2 M152A mutant; source: Sf9, culture supernatant used for SPR; not shown: Fc (human IgG1), C-terminal, kept) QQDLAPQQRAAPQQKRSSPSEGLCPPGHHISEDGRDCISCKYGQDYSTHWNDLLFCLRCTRCDSGEVELSPCTTTRNTVCQCEEGTFREEDSPEACRKCRTGCPRGMVKVGDCTPWSDIECVHKESG				Kd [3]: 202 nM
Human TRAIL-R2-Fc K155A (Fc fusion, source: Sf9, culture supernatant used for SPR; not shown: Fc (human IgG1), C-terminal, kept) QQDLAPQQRAAPQQKRSSPSEGLCPPGHHISEDGRDCISCKYGQDYSTHWNDLLFCLRCTRCDSGEVELSPCTTTRNTVCQCEEGTFREEDSPEMCRACRTGCPRGMVKVGDCTPWSDIECVHKESG				Kd [3]: 40 nM
